Substrate in series [1]: PET
The series is described as follows: Proxy for plastic degradation [Released monomer concentration (HPLC/LC-MS) (TPA+MHET+BHET)] (µmol TPA-EG / mg enzyme / day). To be noted: pH 8.

Substrate in series [2]: PET
The series is described as follows: Proxy for plastic degradation [Released monomer concentration (UHPLC) (TPA+MHET+BHET, as TPA-EG units)] (µmol TPA-EG/mg enzyme/day). To be noted: pH 8.

Substrate in the next series: pNP-C12
Conditions: pH 8; 30 °C.

Substrate in series [3]: Polyester-polyurethane (Impranil DLN)
Kind of series: Proxy for plastic degradation [Proton (H+) release, phenol red pH-indicator assay]. Conditions: 40 °C.

B1: unnamed (protein)
chain: MNFPRASRLMQAAVLGGLMAVSAAATAQTNPYARGPNPTAASLEASAGPFTVRSFTVSRPSGYGAGTVYYPTNAGGTVGAIAIVPGYTARQSSIKWWGPRLASHGFVVITIDTNSTLDQPSSRSSQQMAALRQVASLNGTSSSPIYGKVDTARMGVMGWSMGGGGSLISAANNPSLKAAAPQAPWDSSTNFSSVTVPTLIFACENDSIAPVNSSALPIYDSMSRNAKQFLEINGGSHSCANSGNSNQALIGKKGVAWMKRFMDNDTRYSTFACENPNSTRVSDFRTANCS
With B1, the “Proxy for plastic degradation” value in the series with PET [1] (part of the chain shown) was found to be 4.33; in the series with PET [2] (30 °C, part of the chain shown), 4.33.

B2: unnamed (protein)
chain: MDGVLWRVRTAALMAALLALAAWALVWASPSVEAQSNPYQRGPNPTRSALTADGPFSVATYTVSRLSVSGFGGGVIYYPTGTSLTFGGIAMSPGYTADASSLAWLGRRLASHGFVVLVINTNSRFDYPDSRASQLSAALNYLRTSSPSAVRARLDANRLAVAGHSMGGGGTLRIAEQNPSLKAAVPLTPWHTDKTFNTSVPVLIVGAEADTVAPVSQHAIPFYQNLPSTTPKVYVELDNASHFAPNSNNAAISVYTISWMKLWVDNDTRYRQFLCNVNDPALSDFRTNNRHCQ
As to B2, the “Proxy for plastic degradation” value with PET [1] and with PET [2] (50 °C) was 12.8 throughout.

B3: unnamed (protein)
chain: MAENPYERGPAPTTSSIEASRGSFATSTVTVSRLAVSGFGGGTIYYPTSTTAGTFGAISIAPGFTALQSSIAWLGPRLASQGFVVFTIDTLTTSDQPDSRGRQLLAALDYLTQQSSVRSRIDSSRLGVVGHSMGGGGTLEAARSRPSLQAAIPLTGWNLTKTWSTVRVPTLVVGAQADTVAPVASHSIPFYNSLPSSLDKAYLELRGASHFAPNSSNTTIAKYTLSWLKRFIDNDTRYEQFLCPIPSTSLSISDYRGNCPHNG
With B3, the Km with pNP-C12 was determined as 730 µM. The kcat with pNP-C12 is 8.26 s⁻¹. For the same protein, the kcat/Km in the series with pNP-C12 is 11300 M⁻¹ s⁻¹. In addition, the “Proxy for plastic degradation” value is 790 µM in series [3], 0.17 with PET [1] and 0.17 with PET [2] (40 °C).

The Km is the substrate concentration at which the rate is half of its maximum. Usually kcat stands for the maximal rate divided by the concentration of active sites. By kcat/Km is commonly meant the turnover number divided by the Michaelis constant.

Values taken from the PETadex activity labels (doi:10.1111/febs.16924).
